± gives the uncertainty stated by the source.

B1: Myocardin, residues 363 to 406; numbered along this chain, Q8IZQ8 (parent)
chain: KPGPLPPNLDDLKVSELRQQLRIRGLPVSGTKTALMDRLRPFQD

The data set covers variants of B1. The data set can be described thus: abundance fitness (aPCA) (normalised: wild type 0, dead -1); higher = more abundant; growth selection in yeast, the domain comes from the species named. The settings on record: Homo sapiens.
As to KPGPLPPNLDDLKVSELRQQLRIGGLPVSGTKTALMDRLRPFQD [R24G], the abundance fitness was -0.878 ± 0.11. For KPGPLPPNLDDLKVSELRQQLRIKGLPVSGTKTALMDRLRPFQD [R24K], the abundance fitness was -0.387 ± 0.095. In the case of KPGPLPPNLDDLKVSELRQQLRINGLPVSGTKTALMDRLRPFQD [R24N] it was -0.695 ± 0.15; in that of KPGPLPPNLDDLKVSELRQQLRIVGLPVSGTKTALMDRLRPFQD [R24V], -0.528 ± 0.1; in that of KPGPLPPNLDDLKVSELRQQLRIYGLPVSGTKTALMDRLRPFQD [R24Y], -1.16 ± 0.34.

Regarding KPGPLPPNLDDLKVSELRQQLRIQGLPVSGTKTALMDRLRPFQD [R24Q], the abundance fitness was -0.73 ± 0.2. In the case of KPGPLPPNLDDLKVSELRQQLRIEGLPVSGTKTALMDRLRPFQD [R24E] it was -0.56 ± 0.14.

As to KPGPLPPNLDDLKVSELRQQLRILGLPVSGTKTALMDRLRPFQD [R24L], the abundance fitness is -0.429 ± 0.12. As for KPGPLPPNLDDLKVSELRQQLRIDGLPVSGTKTALMDRLRPFQD [R24D], the abundance fitness was -0.536 ± 0.16. In the case of KPGPLPPNLDDLKVSELRQQLRIFGLPVSGTKTALMDRLRPFQD [R24F] it was -0.819 ± 0.19; in that of KPGPLPPNLDDLKVSELRQQLRIAGLPVSGTKTALMDRLRPFQD [R24A], -0.695 ± 0.11; in that of KPGPLPPNLDDLKVSELRQQLRITGLPVSGTKTALMDRLRPFQD [R24T], -0.905 ± 0.26. For the variant KPGPLPPNLDDLKVSELRQQLRIWGLPVSGTKTALMDRLRPFQD [R24W], the abundance fitness was -0.732 ± 0.14. Turning to KPGPLPPNLDDLKVSELRQQLRISGLPVSGTKTALMDRLRPFQD [R24S], the abundance fitness was -0.881 ± 0.16. As for KPGPLPPNLDDLKVSELRQQLRIPGLPVSGTKTALMDRLRPFQD [R24P], the abundance fitness was -0.456 ± 0.16. On to KPGPLPPNLDDLKVSELRQQLRIMGLPVSGTKTALMDRLRPFQD [R24M], for which the abundance fitness was 0.092 ± 0.2. Take KPGPLPPNLDDLKVSELRQQLRIRSLPVSGTKTALMDRLRPFQD [G25S]: the abundance fitness was -0.318 ± 0.12. Consider KPGPLPPNLDDLKVSELRQQLRIRTLPVSGTKTALMDRLRPFQD [G25T], for which the abundance fitness was -0.56 ± 0.1. In the case of KPGPLPPNLDDLKVSELRQQLRIRMLPVSGTKTALMDRLRPFQD [G25M] it was -0.358 ± 0.14; in that of KPGPLPPNLDDLKVSELRQQLRIRPLPVSGTKTALMDRLRPFQD [G25P], -0.591 ± 0.12. Turning to KPGPLPPNLDDLKVSELRQQLRIRDLPVSGTKTALMDRLRPFQD [G25D], the abundance fitness is -0.246 ± 0.16. Regarding KPGPLPPNLDDLKVSELRQQLRIRNLPVSGTKTALMDRLRPFQD [G25N], the abundance fitness is -0.024 ± 0.18. Take KPGPLPPNLDDLKVSELRQQLRIRRLPVSGTKTALMDRLRPFQD [G25R]: the abundance fitness was -0.401 ± 0.09. In the case of KPGPLPPNLDDLKVSELRQQLRIRLLPVSGTKTALMDRLRPFQD [G25L], the abundance fitness is -1.12 ± 0.35. As for KPGPLPPNLDDLKVSELRQQLRIRKLPVSGTKTALMDRLRPFQD [G25K], the abundance fitness is 0.068 ± 0.14. In the case of KPGPLPPNLDDLKVSELRQQLRIRALPVSGTKTALMDRLRPFQD [G25A] it was -0.39 ± 0.084; in that of KPGPLPPNLDDLKVSELRQQLRIRWLPVSGTKTALMDRLRPFQD [G25W], -1.15 ± 0.25; in that of KPGPLPPNLDDLKVSELRQQLRIRQLPVSGTKTALMDRLRPFQD [G25Q], -0.325 ± 0.088.

KPGPLPPNLDDLKVSELRQQLRIRHLPVSGTKTALMDRLRPFQD [G25H]: the abundance fitness was 0.308 ± 0.16.

As to KPGPLPPNLDDLKVSELRQQLRIRFLPVSGTKTALMDRLRPFQD [G25F], the abundance fitness was -0.175 ± 0.38. In the case of KPGPLPPNLDDLKVSELRQQLRIRVLPVSGTKTALMDRLRPFQD [G25V] it was -1.38 ± 0.3. As to KPGPLPPNLDDLKVSELRQQLRIRCLPVSGTKTALMDRLRPFQD [G25C], the abundance fitness was -0.342 ± 0.12.

With KPGPLPPNLDDLKVSELRQQLRIRELPVSGTKTALMDRLRPFQD [G25E], the abundance fitness is -0.274 ± 0.1.

KPGPLPPNLDDLKVSELRQQLRIRGTPVSGTKTALMDRLRPFQD [L26T]: the abundance fitness was -0.805 ± 0.15. For KPGPLPPNLDDLKVSELRQQLRIRGSPVSGTKTALMDRLRPFQD [L26S], the abundance fitness was -0.562 ± 0.1. For the variant KPGPLPPNLDDLKVSELRQQLRIRGKPVSGTKTALMDRLRPFQD [L26K], the abundance fitness was -0.404 ± 0.2. Take KPGPLPPNLDDLKVSELRQQLRIRGEPVSGTKTALMDRLRPFQD [L26E]: the abundance fitness was -0.293 ± 0.084.

For the variant KPGPLPPNLDDLKVSELRQQLRIRGVPVSGTKTALMDRLRPFQD [L26V], the abundance fitness was -0.732 ± 0.12.

Regarding KPGPLPPNLDDLKVSELRQQLRIRGRPVSGTKTALMDRLRPFQD [L26R], the abundance fitness is -0.858 ± 0.083.

As to KPGPLPPNLDDLKVSELRQQLRIRGGPVSGTKTALMDRLRPFQD [L26G], the abundance fitness is -0.586 ± 0.12.

Regarding KPGPLPPNLDDLKVSELRQQLRIRGQPVSGTKTALMDRLRPFQD [L26Q], the abundance fitness was -0.503 ± 0.14. As to KPGPLPPNLDDLKVSELRQQLRIRGIPVSGTKTALMDRLRPFQD [L26I], the abundance fitness is -0.431 ± 0.19. With KPGPLPPNLDDLKVSELRQQLRIRGWPVSGTKTALMDRLRPFQD [L26W], the abundance fitness is -0.951 ± 0.14.

With KPGPLPPNLDDLKVSELRQQLRIRGMPVSGTKTALMDRLRPFQD [L26M], the abundance fitness was 0.075 ± 0.13.

As to KPGPLPPNLDDLKVSELRQQLRIRGPPVSGTKTALMDRLRPFQD [L26P], the abundance fitness is -0.676 ± 0.38.

In the case of KPGPLPPNLDDLKVSELRQQLRIRGHPVSGTKTALMDRLRPFQD [L26H], the abundance fitness was -1.1 ± 0.27. In the case of KPGPLPPNLDDLKVSELRQQLRIRGAPVSGTKTALMDRLRPFQD [L26A] it was -0.479 ± 0.094. With KPGPLPPNLDDLKVSELRQQLRIRGLAVSGTKTALMDRLRPFQD [P27A], the abundance fitness was -0.376 ± 0.093. In the case of KPGPLPPNLDDLKVSELRQQLRIRGLDVSGTKTALMDRLRPFQD [P27D] it was 0.162 ± 0.071; in that of KPGPLPPNLDDLKVSELRQQLRIRGLCVSGTKTALMDRLRPFQD [P27C], -0.216 ± 0.1; in that of KPGPLPPNLDDLKVSELRQQLRWRGLPVSGTKTALMDRLRPFQD [I23W], -0.291 ± 0.085. For the variant KPGPLPPNLDDLKVSELRQQLRQRGLPVSGTKTALMDRLRPFQD [I23Q], the abundance fitness was -0.229 ± 0.092. In the case of KPGPLPPNLDDLKVSELRQQLRSRGLPVSGTKTALMDRLRPFQD [I23S] it was 0.033 ± 0.067; in that of KPGPLPPNLDDLKVSELRQQLRVRGLPVSGTKTALMDRLRPFQD [I23V], -0.092 ± 0.061. With KPGPLPPNLDDLKVSELRQQLRRRGLPVSGTKTALMDRLRPFQD [I23R], the abundance fitness was -0.211 ± 0.065. As to KPGPLPPNLDDLKVSELRQQLRPRGLPVSGTKTALMDRLRPFQD [I23P], the abundance fitness is -0.605 ± 0.12. Turning to KPGPLPPNLDDLKVSELRQQLRTRGLPVSGTKTALMDRLRPFQD [I23T], the abundance fitness is -0.261 ± 0.18.

For KPGPLPPNLDDLKVSELRQQLRYRGLPVSGTKTALMDRLRPFQD [I23Y], the abundance fitness is 0.013 ± 0.098.

The values above are taken from the Human Domainome abundance scans (Beltran et al. 2025).
